Measurements: patent US10293027B2, “Methods for treating metabolic disorders using FGF” (Salk Institute for Biological Studies, priority 2010, dated 2019)
“Also recorded” adds a separate entry of the source.

What was measured:
Type in all cases: in vivo, mouse
[1] = tested on: ob/ob mice; assay: Chronic FGF-1 treatment for 36 days: glucose, food intake, body composition, serum lipids, liver (Examples 7-10)
Method: Blood was collected by tail bleeding either in the ad libitum fed state or following overnight fasting. Free fatty acids (Wako), triglycerides (Thermo), and cholesterol (Thermo) were measured using enzymatic colorimetric methods following the manufacturer's instructions. Serum insulin levels were measured using an Ultra Sensitive Insulin ELISA kit (Crystal Chem). Serum adiponectin levels were measured by ELISA (Millipore). Plasma adipokine levels were measured using a Milliplex™ MAP kit (Millipore).
Tissues were fixed in 4% phosphate-buffered formalin, embedded in paraffin, sectioned at 4 μm, and stained with hematoxylin and eosin according to standard procedures. For immunohistochemistry, tissues were deparaffinized in xylene and rehydrated. Slides were incubated with 5% normal donkey serum in PBS (+0.2% Triton-X100 and 1% BSA) for 30 min, and subsequently sections were incubated overnight with a 1:200 dilution of primary antibodies at 4° C. and using Alexa Fluor 488 or 595 as secondary antibodies for 2 hrs at RT.
(§1) In Example 5, ob/ob male mice (8 wk old) were randomized into three groups and treated with daily subcutaneous (s.c.) injections of recombinant mouse FGF-1 (0.5 mg/kg in PBS), oral rosiglitazone (TZD, 5 mg/kg in 0.5% carboxymethyl cellulose), or vehicle. Blood glucose levels were measure in fed animals one hour after treatment. Total body composition analysis was performed using an EchoMRI-100™ (Echo Medical Systems, LLC).
To investigate the metabolic effects of chronic FGF-1 treatment in ob/ob mice, eight weeks old male ob/ob mice were treated with vehicle or recombinant mouse FGF-1 (0.5 mg/kg/3 days, s.c.) for a period of 36 days. During this time, glucose levels, food intake, and body composition were monitored.

[2] = tested on: ob/ob diabetic mice; assay: Delivery method (s.c., i.p., i.v.) and FGF-1 blood glucose effects (Example 11)
Method: FIG. 22. Assessment of delivery method on FGF-1 blood glucose effects.
FIG. 23. Assessment of delivery method on duration of FGF-1 activity. Single subcutaneous (sc) or intravenous (iv) injection of FGF-1 (0.5 mg/kg) in ob/ob mice.
To determine if the effects of FGF-1 depend on the route of administration, we tested blood glucose levels of ob/ob mice in response to 0.5 mg/kg body weight FGF-1 delivered s.c., i.p. and i.v. PBS injections were used as controls. […] We next compared i.v. and s.c. injections for duration of the glucose normalizing effect.

[3] = tested on: ob/ob mice; assay: Glucose tolerance test after four weeks of FGF-1 administration; settings: after four weeks of 0.5 mg/kg/3 days s.c.
Method: Glucose tolerance tests (GTT) were conducted after overnight fasting. Mice were injected intraperitoneally (i.p.) with 1 g of glucose per/kg body weight, and blood glucose was monitored at 0, 15, 30, 60, 90, and 120 min using a OneTouch Ultra glucometer (Lifescan Inc). Insulin tolerance tests (ITT) were conducted after overnight fasting. Mice were injected i.p. with 0.5 U of insulin/kg body weight (Humulin R; Eli Lilly), and blood glucose was monitored at 0, 15, 30, 60, 90, and 120 min using a OneTouch Ultra glucometer (Lifescan Inc). Real-time metabolic analyses were conducted in an undisturbed room under 12 h/12 h light/dark cycles using a Comprehensive Lab Animal Monitoring System (Columbus Instruments).
These tests were carried out as described above.

[4] = tested on: ob/ob male mice; assay: Daily FGF-1 or rosiglitazone treatment of ob/ob mice: fed blood glucose and body composition (Example 5)
Method: FIGS. 7A-7H. FGF-1 injection studies in rodents. (A) Fed blood glucose in ob/ob male mice treated with FGF-1 (0.5 mg/kg, s.c.), rosiglitazone (TZD, 5 mg/kg, p.o.), or vehicle. FGF-1 was administered once daily, and blood glucose levels were measured at day 0 (basal levels before FGF-1 injection), day 3, and day 6, 1 hour after injection. The values (±SE) shown are the average of the measurements of 5 animals in a group; (B) Sustained glucose lowering effects of FGF-1: Fed blood glucose levels in ob/ob mice at indicated time points after the last FGF-1 injection at day 6. (C-H): 72 hrs after the sixth dose, another dose was given and effects of FGF-1 and TZD on (C) body weight, (D) total body fat, (E) lean weight, (F) weight gain, (G) liver weight, and (H) heart weight were determined.
as §1
Eight-week-old male ob/ob mice were treated with recombinant mouse FGF-1 (0.5 mg/kg/day, s.c. in 250 μl), rosiglitazone (TZD, 5 mg/kg/day, p.o. in 300 μl), or vehicle control (s.c. vehicle control 0.9% NaCl, 250 μl/mouse; p.o. vehicle control 0.5% CMC, 300 μl/mouse). Blood glucose was measured one hour after treatment at day 3 and day 6 using a standard protocol. (FIG. 7A).
Before treatment, all groups were severely hyperglycemic, as indicated by blood glucose levels of about 400 mg/dl. […] At 6 days, blood glucose levels were even further reduced to around 130-140 mg/dl for both groups. After the sixth dose, blood glucose levels were monitored for another 72 hrs. During this period, both FGF-1- and TZD-treated cohorts maintained normoglycemic levels (<140 mg/dl) for at least 48 hrs (FIG. 7B). At 72 hrs after the sixth dose, a final dose was given, and 12 hrs later, a total body composition analysis was performed by MRI followed by necropsy.

[5] = after the 36 day treatment period

B1: FGF-1: recombinant mouse FGF-1 (acidic fibroblast growth factor), a secreted protein that binds heparin and FGF receptors (protein, UniProt P61148 16-155, looked up)
Fibroblast growth factor 1: FNLPLGNYKKPKLLYCSNGGHFLRILPDGTVDGTRDRSDQHIQLQLSAESAGEVYIKGTETGQYLAMDTEGLLYGSQTPNEECLFLERLEENHYNTYTSKKHAEKNWFVGLKKNGSCKRGPRTHYGQKAILFLPLPVSSD
With B1 the “blood glucose under chronic treatment” value ([1]; 0.5 mg/kg every third day s.c., 36 days) was “glucose levels are normalized by the first time point tested (day 2) and remain stable for the remainder of the test period; also recorded: completely normalized blood glucose”, the “body weight / weight gain” value ([1]; 0.5 mg/kg/3 days s.c.) was “remains lower than in untreated ob/ob mice; also recorded: reduced weight gain during the first week” and the food intake ([1]; 0.5 mg/kg/3 days s.c.) was “initially results in reduced food intake; also recorded: reduced food intake during the first 1-2 weeks of chronic administration, but after two weeks food intake returned to normal”. For the same molecule, the percent lean mass ([1]; 0.5 mg/kg/3 days s.c.) was “significantly higher than in untreated mice; also recorded: increased lean mass as compared with control mice”, the “total percent body fat” value ([1]; 0.5 mg/kg/3 days s.c.) was “reduced percentage body fat; also recorded: reduced increase in percent body fat” and the hepatic glycogen [1, 5] was “much higher; also recorded: increased levels of hepatic glycogen”. The “hepatic steatosis (H&E staining of liver)” value [1, 5] was “much less steatosis, and little if any inflammation; also recorded: Steatosis is dramatically reduced compared to control”, the “acute blood glucose effect by s.c., i.p. and i.v. delivery” value ([2]; 0.5 mg/kg) was “about the same for all three injection methods” and the “time of stable glucose levels after intravenous administration” value ([2]; 0.5 mg/kg i.v., duration of the test) was “at least 60 hours”. The “duration of glucose normalizing effect, iv compared to sc” value ([2]; single injection 0.5 mg/kg) was “persist longer when administered iv as compared to sc”, the “glucose tolerance (GTT)” value [3] was “cleared glucose more effectively than untreated controls; also recorded: enhances glucose tolerance” and the “blood glucose levels at day three” value ([4]; fed ob/ob male mice, one hour after treatment, FGF-1 0.5 mg/kg/day s.c., TZD 5 mg/kg/day p.o., about 400 mg/dl before treatment) was “about 200 mg/dl”. For the same molecule, the “blood glucose (in words)” value ([4]; ob/ob diabetic mice, FGF-1 administration) was “decreases fed blood glucose in ob/ob mice; also recorded: normalizes their glucose levels” and the fat-lean ratio ([4]; ob/ob mice, total body composition by MRI) was “improves their fat-lean ratio”.
